Patent US20050106100

Experiments:
[1] = molecular target: T1, Ac-PLG˜LYS-Ahxh-Ac[C14] (not fully specified)
T1 chain: PLGLYS

[2] = molecular target: T2, Ac-P-Cit-G˜Hphe-LQ-Hynic (not fully specified)
T2 chain: PXGXLQ

[3] = molecular target: T3, Ac-PRG˜Hphe-LA-Ahxh-Hynic
T3 chain: PRGXLA

[4] = molecular target: T4, Ac-PLG˜Hphe-RLA-Ambh-Hynic
T4 chain: PLGXRLA

[5] = molecular target: T5, Ac-NGlu-PLG˜Hphe-YL-Ahxh-Ac[C14] (not fully specified)
T5 chain: XPLGXYL

[6] = molecular target: T6, Ac-PLG˜Hphe-OLEE-Ahx-Hynic
T6 chain: PLGXXLEE

[7] = molecular target: T7, Ac-PL-NLys˜S(OBn)-LL-Ahxh-Ac[C14] (not fully specified)
T7 chain: PLXSLL

[8] = molecular target: T8, Ac-PL-Sar˜LL-Ahxh-Ac[C14] (not fully specified)
T8 chain: PLXLL

[9] = molecular target: T9, Ac-P-Cit-G˜S(OBn)-LA-Ahxh-Ac[C14] (not fully specified)
T9 chain: PXGSLA

[10] = molecular target: T10, Ac-PLG˜LL-Ahxh-Hynic
T10 chain: PLGLL

[11] = molecular target: T11, Ac-P-Cit-G˜Tle-LA-Ahxh-Hynic (not fully specified)
T11 chain: PXGXLA

[12] = molecular target: T12, Ac-P-Cit-G˜Hphe-LA-Ahxh-Hynic (not fully specified)
T12 chain: PXGXLA

[13] = molecular target: T13, Ac-P-Cha-G˜Hphe-Cit-L-Ahxh-Ac[C14] (not fully specified)
T13 chain: PXGXXL

[14] = molecular target: T14, Ac-PR-Cit˜LSA-Ahxh-Hynic
T14 chain: PRXLSA

[15] = molecular target: T15, Ac-PLG˜L-Pya-L-Ahxh-Ac[C14] (not fully specified)
T15 chain: PLGLXL

[16] = molecular target: T16, Ac-NLys-PLG˜Hphe-RLA-Ahxh-Hynic (not fully specified)
T16 chain: XPLGXRLA

[17] = molecular target: T17, Ac-PLG˜S(OBn)-LL-Ahxh-Hynic
T17 chain: PLGSLL

[18] = molecular target: T18, Ac-PLG˜LAL-Ahxh-Hynic
T18 chain: PLGLAL

[19] = molecular target: T19, Ac-PL-NLys-LL-dLeu-Ahxh-Ac[C14]
T19 chain: PLXLLL

[20] = molecular target: T20, Ac-P-O(Me)2-G˜Hphe-L-Nle-Ahxh-Hynic (not fully specified)
T20 chain: PXGXLX

[21] = molecular target: T21, Ac-P-Cit-Hse˜Hphe-SA-Ahxh-Hynic (not fully specified)
T21 chain: PXXXSA

[22] = molecular target: T22, Ac-PLG-Hphe-OL-Ahxh-Ac[C14]
T22 chain: PLGXXL

[23] = molecular target: T23, Ac-P-Cit-G-Hphe-LA-Hynic
T23 chain: PXGXLA

[24] = molecular target: T24, Ac-POG˜LLA-Ahxh-Hynic
T24 chain: PXGLLA

[25] = molecular target: T25, Ac-PLG˜Hphe-R-Ahxh-Ac[C14] (not fully specified)
T25 chain: PLGXR

[26] = molecular target: T26, Ac-P-Cit-Cit-LTA-Ahxh-Hynic
T26 chain: PXXLTA

[27] = molecular target: T27, Ac-PLG˜LHL-Ahxh-Hynic
T27 chain: PLGLHL

[28] = molecular target: T28, Ac-P-NMeArg-R˜LTA-Ambh-Hynic (not fully specified)
T28 chain: PRRLTA

[29] = molecular target: T29, Ac-PLG˜LYQ-Ahxh-Ac[C14] (not fully specified)
T29 chain: PLGLYQ

[30] = molecular target: T30, Ac-DAla-PRG˜Ile-LA-Ahxh-Hynic (not fully specified)
T30 chain: APRGILA

[31] = molecular target: T31, Ac-PL-NLys˜LL-Ambh-Ac[C14] (not fully specified)
T31 chain: PLXLL

[32] = molecular target: T32, Ac-PLG˜Hphe-YL-Ambh-Hynic
T32 chain: PLGXYL

[33] = molecular target: T33, Ac-PLG˜Cit-LA-Ahxh-Ac[C14] (not fully specified)
T33 chain: PLGXLA

[34] = molecular target: T34, Ac-POG˜Hphe-Smc-T-Ahxh-Hynic
T34 chain: PXGXXT

[35] = molecular target: T35, Ac-POG˜Hphe-LTR-Ahxh-Ac[C14]
T35 chain: PXGXLTR

[36] = molecular target: T36, Ac-P-Cha-G˜Smc-HA-Ahxh-Hynic (not fully specified)
T36 chain: PXGXHA

[37] = molecular target: T37, Ac-PL-NLys˜LL-Ahxh-Ac[C14] (not fully specified)
T37 chain: PLXLL

[38] = molecular target: T38, Ac-Csa-PLG˜Hphe-YL-Ambh-Hynic (not fully specified)
T38 chain: XPLGXYL

[39] = molecular target: T39, Ac-PLG˜Hphe-OLR-Ahxh-Hynic
T39 chain: PLGXXLR

[40] = molecular target: T40, Ac-P-Cit-G˜Hphe-LA-Ahxh-Ac[C14] (not fully specified)
T40 chain: PXGXLA

[41] = molecular target: T41, Ac-PL-NLys˜Ahp-YL-Ahxh-Ac[C14] (not fully specified)
T41 chain: PLXXYL

[42] = molecular target: T42, Ac-POG˜Hphe-L-Nle-Ahxh-Hynic
T42 chain: PXGXLX

[43] = molecular target: T43, H-NLys-PLG˜LYT-Ahxh-Hynic (not fully specified)
T43 chain: XPLGLYT

[44] = molecular target: T44, Ac-PLG˜LWA-Ahxh-Ac[C14] (not fully specified)
T44 chain: PLGLWA

[45] = molecular target: T45, Ac-POG˜Hphe-LQ-Ahxh-Hynic
T45 chain: PXGXLQ

[46] = molecular target: T46, Ac-PLG˜Hphe-KL-Ahxh-Ac[C14] (not fully specified)
T46 chain: PLGXKL

[47] = molecular target: T47, Ac-P-Cit-G˜Hphe-Cha-A-Ahxh-Ac[C14] (not fully specified)
T47 chain: PXGXXA

[48] = molecular target: T48, Ac-PLG˜LY-Ahxh-Ac[C14] (not fully specified)
T48 chain: PLGLY

[49] = molecular target: T49, Ac-PLG˜LRA-Ahxh-Hynic (not fully specified)
T49 chain: PLGLRA

[50] = molecular target: T50, Ac-POG˜Hphe-L-Hynic
T50 chain: PXGXL

B1: human MMP-9 (protein)
chain: MRTPRCGVPDLGRFQTFEGDLKWHHHNITYWIQNYSEDLPRAVIDDAFARAFALWSAVTPLTFTRVYSRDADIVIQFGVAEHGDGYPFDGKDGLLAHAFPPGPGIQGDAHFDDDELWSLGKGVVVPTRFGNADGAACHFPFIFEGRSYSACTTDGRSDGLPWCSTTANYDTDDRFGFCPSERLYTQDGNADGKPCQFPFIFQGQSYSACTTDGRSDGYRWCATTANYDRDKLFGFCPTRADSTVMGGNSAGELCVFPFTFLGKEYSTCTSEGRGDGRLWCATTSNFDSDKKWGFCPDQGYSLFLVAAHEFGHALGLDHSSVPEALMYPMYRFTEGPPLHKDDVNGIRHLYGPRPEPEPRPPTTTTPQPTAPPTVCPTGPPTVHPSERPTAGPTGPPSAGPTGPPTAGPSTATTVPLSPVDDACNVNIFDAIAEIGNQLYLFKDGKYWRFSEGRGSRPQGPFLIADKWPALPRKLDSVFEERLSKKLFFFSGRQVWVYTGASVLGPRRLDKLGLGADVAQVTGALRSGRGKMLLFSGRRLWRFDVKAQMVDPRSASEVDRMFPGVPLDTHDVFQYREKAYFCQDRFYWRVSSRSELNQVDQVGYVTYDILQCPED
Kcat/Km [1]: > 500000 M⁻¹ s⁻¹ | Kcat/Km [2]: 79600 M⁻¹ s⁻¹ | Kcat/Km [3]: > 500000 M⁻¹ s⁻¹ | Kcat/Km [4]: 4550 M⁻¹ s⁻¹ | Kcat/Km [5]: 213000 M⁻¹ s⁻¹ | Kcat/Km [6]: 1990 M⁻¹ s⁻¹ | Kcat/Km [7]: 271000 M⁻¹ s⁻¹ | Kcat/Km [8]: 143000 M⁻¹ s⁻¹ | Kcat/Km [9]: > 500000 M⁻¹ s⁻¹ | Kcat/Km [10]: 218000 M⁻¹ s⁻¹ | Kcat/Km [11]: 0 M⁻¹ s⁻¹ | Kcat/Km [12]: 584000 M⁻¹ s⁻¹ | Kcat/Km [13]: > 500000 M⁻¹ s⁻¹ | Kcat/Km [14]: 40100 M⁻¹ s⁻¹ | Kcat/Km [15]: 162000 M⁻¹ s⁻¹ | Kcat/Km [16]: 373000 M⁻¹ s⁻¹ | Kcat/Km [17]: 187000 M⁻¹ s⁻¹ | Kcat/Km [18]: 7140 M⁻¹ s⁻¹ | Kcat/Km [19]: 0 M⁻¹ s⁻¹ | Kcat/Km [20]: 27000 M⁻¹ s⁻¹ | Kcat/Km [21]: 38300 M⁻¹ s⁻¹ | Kcat/Km [22]: 77500 M⁻¹ s⁻¹ | Kcat/Km [23]: > 250000 M⁻¹ s⁻¹ | Kcat/Km [24]: 187000 M⁻¹ s⁻¹ | Kcat/Km [25]: > 500000 M⁻¹ s⁻¹ | Kcat/Km [26]: 29300 M⁻¹ s⁻¹ | Kcat/Km [27]: 156000 M⁻¹ s⁻¹ | Kcat/Km [28]: 792 M⁻¹ s⁻¹ | Kcat/Km [29]: 658000 M⁻¹ s⁻¹ | Kcat/Km [30]: 61700 M⁻¹ s⁻¹ | Kcat/Km [31]: 88000 M⁻¹ s⁻¹ | Kcat/Km [32]: 190000 M⁻¹ s⁻¹ | Kcat/Km [33]: 34000 M⁻¹ s⁻¹ | Kcat/Km [34]: 85400 M⁻¹ s⁻¹ | Kcat/Km [35]: 246000 M⁻¹ s⁻¹ | Kcat/Km [36]: > 250000 M⁻¹ s⁻¹ | Kcat/Km [37]: 195000 M⁻¹ s⁻¹ | Kcat/Km [38]: 41600 M⁻¹ s⁻¹ | Kcat/Km [39]: 22100 M⁻¹ s⁻¹ | Kcat/Km [40]: 652000 M⁻¹ s⁻¹ | Kcat/Km [41]: 0 M⁻¹ s⁻¹ | Kcat/Km [42]: 52000 M⁻¹ s⁻¹ | Kcat/Km [43]: 149000 M⁻¹ s⁻¹ | Kcat/Km [44]: > 750000 M⁻¹ s⁻¹ | Kcat/Km [45]: 84800 M⁻¹ s⁻¹ | Kcat/Km [46]: 120000 M⁻¹ s⁻¹ | Kcat/Km [47]: > 500000 M⁻¹ s⁻¹ | Kcat/Km [48]: 336000 M⁻¹ s⁻¹ | Kcat/Km [49]: > 500000 M⁻¹ s⁻¹ | Kcat/Km [50]: 4450 M⁻¹ s⁻¹

B2: MMP-2 (protein)
chain: APSPIIKFPGDVAPKTDKELAVQYLNTFYGCPKESCNLFVLKDTLKKMQKFFGLPQTGDLDQNTIETMRKPRCGNPDVANYNFFPRKPKWDKNQITYRIIGYTPDLDPETVDDAFARAFQVWSDVTPLRFSRIHDGEADIMINFGRWEHGDGYPFDGKDGLLAHAFAPGTGVGGDSHFDDDELWTLGEGQVVRVKYGNADGEYCKFPFLFNGKEYNSCTDTGRSDGFLWCSTTYNFEKDGKYGFCPHEALFTMGGNAEGQPCKFPFRFQGTSYDSCTTEGRTDGYRWCGTTEDYDRDKKYGFCPETAMSTVGGNSEGAPCVFPFTFLGNKYESCTSAGRSDGKMWCATTANYDDDRKWGFCPDQGYSLFLVAAHEFGHAMGLEHSQDPGALMAPIYTYTKNFRLSQDDIKGIQELYGASPDIDLGTGPTPTLGPVTPEICKQDIVFDGIAQIRGEIFFFKDRFIWRTVTPRDKPMGPLLVATFWPELPEKIDAVYEAPQEEKAVFFAGNEYWIYSASTLERGYPKPLTSLGLPPDVQRVDAAFNWSKNKKTYIFAGDKFWRYNEVKKKMDPGFPKLIADAWNAIPDNLDAVVDLQGGGHSYFFKGAYYLKLENQSLKSVKFGSIKSDWLGC
Kcat/Km [1]: > 500000 M⁻¹ s⁻¹ | Kcat/Km [2]: 171000 M⁻¹ s⁻¹ | Kcat/Km [3]: > 500000 M⁻¹ s⁻¹ | Kcat/Km [4]: 197 M⁻¹ s⁻¹ | Kcat/Km [5]: 351000 M⁻¹ s⁻¹ | Kcat/Km [6]: 8020 M⁻¹ s⁻¹ | Kcat/Km [7]: 165000 M⁻¹ s⁻¹ | Kcat/Km [8]: 111000 M⁻¹ s⁻¹ | Kcat/Km [9]: > 500000 M⁻¹ s⁻¹ | Kcat/Km [10]: > 250000 M⁻¹ s⁻¹ | Kcat/Km [11]: 164 M⁻¹ s⁻¹ | Kcat/Km [12]: 827000 M⁻¹ s⁻¹ | Kcat/Km [13]: 22600 M⁻¹ s⁻¹ | Kcat/Km [14]: 14700 M⁻¹ s⁻¹ | Kcat/Km [15]: 93000 M⁻¹ s⁻¹ | Kcat/Km [16]: 461000 M⁻¹ s⁻¹ | Kcat/Km [17]: 180000 M⁻¹ s⁻¹ | Kcat/Km [18]: 4380 M⁻¹ s⁻¹ | Kcat/Km [19]: 0 M⁻¹ s⁻¹ | Kcat/Km [20]: 567000 M⁻¹ s⁻¹ | Kcat/Km [21]: 91400 M⁻¹ s⁻¹ | Kcat/Km [22]: 53800 M⁻¹ s⁻¹ | Kcat/Km [23]: > 250000 M⁻¹ s⁻¹ | Kcat/Km [24]: > 500000 M⁻¹ s⁻¹ | Kcat/Km [25]: > 500000 M⁻¹ s⁻¹ | Kcat/Km [26]: 27300 M⁻¹ s⁻¹ | Kcat/Km [27]: 73700 M⁻¹ s⁻¹ | Kcat/Km [28]: 879 M⁻¹ s⁻¹ | Kcat/Km [29]: 439000 M⁻¹ s⁻¹ | Kcat/Km [30]: 130000 M⁻¹ s⁻¹ | Kcat/Km [31]: 68600 M⁻¹ s⁻¹ | Kcat/Km [32]: 63200 M⁻¹ s⁻¹ | Kcat/Km [33]: 16300 M⁻¹ s⁻¹ | Kcat/Km [34]: > 500000 M⁻¹ s⁻¹ | Kcat/Km [35]: > 500000 M⁻¹ s⁻¹ | Kcat/Km [36]: 146000 M⁻¹ s⁻¹ | Kcat/Km [37]: 180000 M⁻¹ s⁻¹ | Kcat/Km [38]: 19500 M⁻¹ s⁻¹ | Kcat/Km [39]: 46600 M⁻¹ s⁻¹ | Kcat/Km [40]: > 750000 M⁻¹ s⁻¹ | Kcat/Km [41]: 0 M⁻¹ s⁻¹ | Kcat/Km [42]: 401000 M⁻¹ s⁻¹ | Kcat/Km [43]: 85100 M⁻¹ s⁻¹ | Kcat/Km [44]: 712000 M⁻¹ s⁻¹ | Kcat/Km [45]: > 250000 M⁻¹ s⁻¹ | Kcat/Km [46]: 103000 M⁻¹ s⁻¹ | Kcat/Km [47]: > 500000 M⁻¹ s⁻¹ | Kcat/Km [48]: 283000 M⁻¹ s⁻¹ | Kcat/Km [49]: > 500000 M⁻¹ s⁻¹ | Kcat/Km [50]: 63700 M⁻¹ s⁻¹
